{
  "source": "patent US20040241165A1",
  "about": "(Takeda / Millennium, published 2004)",
  "key": {"[1]": {"target": "human-type OT7T022 (hOT7T022) G protein-coupled receptor protein (human) (UniProt Q9GZQ6)", "sequence (Q9GZQ6 whole entry)": "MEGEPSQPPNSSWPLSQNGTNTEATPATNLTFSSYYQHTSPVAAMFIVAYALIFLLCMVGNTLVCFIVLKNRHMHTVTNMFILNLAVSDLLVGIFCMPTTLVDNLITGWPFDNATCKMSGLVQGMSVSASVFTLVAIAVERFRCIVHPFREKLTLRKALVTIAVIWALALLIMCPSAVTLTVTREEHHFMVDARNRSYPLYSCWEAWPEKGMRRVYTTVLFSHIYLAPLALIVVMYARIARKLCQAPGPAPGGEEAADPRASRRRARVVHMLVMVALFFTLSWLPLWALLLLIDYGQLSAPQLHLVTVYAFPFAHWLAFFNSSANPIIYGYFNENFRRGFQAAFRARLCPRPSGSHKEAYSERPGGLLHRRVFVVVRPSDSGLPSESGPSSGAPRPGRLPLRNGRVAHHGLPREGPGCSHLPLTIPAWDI", "assay": "cell-based or functional assay"}, "[2]": {"target": "human-type OT7T022 (hOT7T022) G protein-coupled receptor protein (human) (UniProt Q9GZQ6)", "assay": "binding inhibition: displacement of 125I-Tyr-hRFRP-3(8) from membrane fraction of human-type OT7T022-expressing CHO cells"}, "[3]": {"target": "T1, human-type OT7T022 (hOT7T022) G protein-coupled receptor protein (human, UniProt Q9GZQ6 1-430)", "T1 sequence (Q9GZQ6 whole entry)": "as above", "assay": "cell-based or functional assay"}, "[4]": {"target": "T1, human-type OT7T022 (hOT7T022) G …", "assay": "binding inhibition: displacement of 125I-Tyr-hRFRP-3(8) from membrane fraction of human-type OT7T022-expressing CHO cells", "description": "An assay buffer [50 mM Tris-HCl, pH 7.5, 5 mM EDTA, 0.1% bovine serum albumin (Sigma), 0.5 mM PMSF (Wako Purechemical Industries), 20 μg/ml leupeptin (Peptide Institute, Inc.), 0.1 μg/ml pepstatin A (Peptide Institute, Inc.), 4 μg/ml E64 (Peptide Institute, Inc.) and 10 mM MgCl₂] was prepared. With this buffer, the membrane fraction from human-type OT7T022-expressing CHO cells was diluted to give a concentration of 1 μg/25 μl. […] Sample solutions prepared, NSB and the assay buffer were dispensed into polypropylene 96-well plates in quadruplicate as total 50 μl/well. […] Twenty-five microliter of the membrane fraction solution from human-type OT7T022-expressing CHO cells was added thereto, agitated with a plate mixer and incubated at room temperature for 1.5 hr. Using a cell harvester for 96-well plates, the contents of each well were adsorbed onto a filter unit (GF/C, treated with polyethylene imine) pre-moisturized with washing buffer (50 mM Tris-HCl, pH 7.5). After washing 5 times with the washing buffer, the adsorbate was dried thoroughly. The lower part of the filter unit was sealed. Then, 50 μl of liquid scintillator was added to each well and the upper part of the filter unit was sealed. Radioactivity was measured with a Top Count (Packard), and data were analyzed in triplicate."}, "[5]": {"target": "T1, human-type OT7T022 (hOT7T022) G …", "assay": "cell-based or functional assay", "remark": "listed apart in the source"}, "[6]": {"target": "G protein-coupled receptor protein rOT7T022L (rat, UniProt Q9EP86 1-432)", "sequence (Q9EP86 whole entry)": "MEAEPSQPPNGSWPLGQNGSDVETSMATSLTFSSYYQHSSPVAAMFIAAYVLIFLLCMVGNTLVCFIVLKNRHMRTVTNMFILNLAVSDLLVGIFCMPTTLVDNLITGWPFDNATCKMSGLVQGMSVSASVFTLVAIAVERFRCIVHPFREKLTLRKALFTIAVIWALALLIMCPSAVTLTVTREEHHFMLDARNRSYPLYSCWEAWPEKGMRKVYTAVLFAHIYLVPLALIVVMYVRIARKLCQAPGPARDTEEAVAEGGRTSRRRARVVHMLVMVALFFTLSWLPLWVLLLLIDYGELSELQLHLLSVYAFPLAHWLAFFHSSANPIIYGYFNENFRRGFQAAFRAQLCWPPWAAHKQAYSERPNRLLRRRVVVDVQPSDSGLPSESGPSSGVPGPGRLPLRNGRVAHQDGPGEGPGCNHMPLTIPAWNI", "assay": "cell-based or functional assay"}},
  "note": "No end group written: not given here.",
  "data": [
    {"molecule": "hRFRP-3 (28) (second row with this label, last row of Table 1) (peptide)", "values": [
      {"measurement": "cAMP production inhibition EC50", "setting": "[1]", "value": 4.1, "unit": "nM"},
      {"measurement": "IC50", "setting": "[2]", "value": 1.6, "unit": "nM"}
    ]},
    {"molecule": "NLPQRF-NH2", "note": "[Asn-Leu-Pro-Gln-Arg-Phe-NH2: hRFRP-3(6)]", "values": [
      {"measurement": "cAMP production inhibition EC50", "setting": "[3]", "value": 37, "unit": "nM"},
      {"measurement": "IC50", "setting": "[4]", "value": 2.6, "unit": "nM"}
    ]},
    {"molecule": "MPHSFANLPLRF-NH2", "note": "[Met-Pro-His-Ser-Phe-Ala-Asn-Leu-Pro-Leu-Arg-Phe-NH2 (MPHSFANLPLRF amide)]", "values": [
      {"measurement": "ED50, inhibition of intracellular cAMP increase by forskolin treatment", "setting": "[5]", "value": 4.5, "unit": "nM"},
      {"measurement": "cAMP production inhibitory effect, IC50", "setting": "[6]", "value": 0.5, "unit": "nM"}
    ]},
    {"molecule": "SVTFQELKDWGAKKDIKMSPAPANKVPHSAANLPLRF (ends and bridges not checked)", "note": "[rRFRP-1-37]", "values": [
      {"measurement": "ED50, inhibition of intracellular cAMP increase by forskolin treatment", "setting": "[5]", "value": 30, "unit": "nM"}
    ]},
    {"molecule": "SAGATANLPLRSGRNMEVSLVRRVPNLPQRF-NH2 (also called hRFRP-3 (31))", "note": "[human-type RFRP-3(31)]", "values": [
      {"measurement": "cAMP production inhibition EC50", "setting": "[3]", "value": 4.8, "unit": "nM"},
      {"measurement": "IC50", "setting": "[4]", "value": 1.3, "unit": "nM"}
    ]},
    {"molecule": "SLNFEELKDWGPKNVIKMSTPAVNKMPHSFANLPLRF-NH2", "note": "[hRFRP-1-37]", "values": [
      {"measurement": "ED50, inhibition of intracellular cAMP increase by forskolin treatment", "setting": "[5]", "value": 21, "unit": "nM"}
    ]},
    {"molecule": "PQRF-NH2", "note": "[PQRF amide (Pro-Gln-Arg-Phe-NH2)]", "values": [
      {"measurement": "ED50, inhibition of intracellular cAMP increase by forskolin treatment", "setting": "[5]", "value": "≥ 1000", "unit": "nM"}
    ]},
    {"molecule": "PNLPQRF-NH2", "note": "[Pro-Asn-Leu-Pro-Gln-Arg-Phe-NH2: hRFRP-3(7)]", "values": [
      {"measurement": "cAMP production inhibition EC50", "setting": "[3]", "value": 3.2, "unit": "nM"},
      {"measurement": "IC50", "setting": "[4]", "value": 0.62, "unit": "nM"}
    ]},
    {"molecule": "ATANLPLRSGRNMEVSLVRRVPNLPQRF-NH2 (also called hRFRP-3 (28))", "note": "[human-type RFRP-3(28)]", "values": [
      {"measurement": "cAMP production inhibition EC50", "setting": "[3]", "value": 5.1, "unit": "nM"},
      {"measurement": "IC50", "setting": "[4]", "value": 1.1, "unit": "nM"}
    ]}
  ]
}
